Experimental data from patent publication US20190248904A1 (Astellas, published 2019).
Changes are numbered by the printed parent chain. Like-named read-outs stand apart in the source and are kept apart here.

T1: human BDCA-2 (human, UniProt Q8WTT0 1-213)
T1 sequence: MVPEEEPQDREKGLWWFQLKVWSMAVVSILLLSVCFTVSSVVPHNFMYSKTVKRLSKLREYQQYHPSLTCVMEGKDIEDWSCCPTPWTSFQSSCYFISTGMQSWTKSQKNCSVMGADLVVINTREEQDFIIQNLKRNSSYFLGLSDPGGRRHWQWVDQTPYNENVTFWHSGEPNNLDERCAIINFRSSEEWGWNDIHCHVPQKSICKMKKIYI

T2: human BDCA-2 variant (human, UniProt Q8WTT0 1-213)
T2 construct: It was expressed on CHO-K1 cells together with full-length human FcεRIγ; also called human BDCA-2 variant/CHO cells; extracellular region of human BDCA-2
T2 chain: T1 sequence with S33C

B1: Fully human BDC13-32E3 (antibody, human IgG1, kappa, V domains shown)
VH: QVQLQESGPGLVKPSQTLSLTCTVSGGSISSGGYYWNWIRQHPGKGLEWIGYIYYSGNTYYNPSLKSRVTISVDTSKNQFSLKLSSVTAADAAVYHCARGYGDYGGGYFDYWGQGTLVTVSS
VL: DIQMTQSPSSLSASVGDRVTITCQASQDISNYLNWYQQKPGKAPKFLIYDVSNLETGVPSRFSGSGSGTDFTFTISSLQPEDIATYYCQQYDNLPYTFGQGTKLEIKR
modifications: pyroglutamylation at the N terminal of the heavy chain and deletion of lysine at the C terminal of the heavy chain in most of the purified antibody (Example 6)
notes: Human Igγ1 / human Igκ constant regions, expressed in CHOK1SV cells; also called fully human antibody of BDC13-32E3
B2: BDC13-32E3 (chimeric) (antibody, V domains shown)
VH: B1 VH
VL: B1 VL
notes: Hybridoma-derived VelocImmune antibody: human variable regions with mouse constant regions
B3: Fully human BDC3-12F5 (antibody, human IgG1, kappa, V domains shown)
VH: EVQLVESGGGLVQPGGSLRLSCAASGFTFSNYLMNWVRQAPGKGLEWVANIEQDGSEKYYVDSVKGRFTISRDNAKNSLYLQMNSLRAEDTAVYFCARDGDTAMITFDFWGQGTLVTVSS
VL: DIQMTQSPSSVSASVGDRVTITCRASQGIRRWLAWYQQKPGKAPKLLIYAASSLQRGVPSRFSGSGSGTDFTLTISSLQPEDFATYYCQQANSFPWTFGQGTKVEIKR
modifications: deletion of lysine at the C terminal of the heavy chain in most of the purified antibody (Example 6)
notes: Human Igγ1 / human Igκ constant regions, expressed in CHOK1SV cells; also called fully human antibody of BDC3-12F5
B4: BDC3-12F5 (chimeric) (antibody, V domains shown)
VH: B3 VH
VL: B3 VL
notes: as for B2
B5: BDC3-12A2 (chimeric) (antibody, V domains shown)
VH: QVQLVESGGGVVQPGRSLRLSCAASGFTLSSYGMHWVRQAPGKGLEWVAVIWYDGNDKYYADSVKGRFTISRDNSKNTLYLQVNSLRAEDTAVYYCARGTGTPYWYFDLWGRGTLVTVSS
VL: EIVLTQSPATLSLSPGERATLSCRASQSVNNYLAWYQQKPGQAPRLLIYDASNRATGIPARFSGSGSGTDFTLTISSLEPEDFAVYYCQQRSTWPPYTFGQGTKLEIKR
notes: as for B2
B6: Fully human BDC3-12A2 (antibody, human IgG1, kappa, V domains shown)
VH: B5 VH
VL: B5 VL
modifications: pyroglutamylation at the N terminal of the heavy chain and deletion of lysine at the C terminal of the heavy chain in most of the purified antibody (Example 6)
notes: Human Igγ1 / human Igκ constant regions, expressed in CHOK1SV cells; also called fully human antibody of BDC3-12A2

Columns and labels:
human BDCA-2 [1] = biological target: T1, human BDCA-2; test: cell-based or functional assay
human BDCA-2 variant [2] = biological target: T2, human BDCA-2 variant; test: cell ELISA on human BDCA-2 variant/CHO cells, chemiluminescence
Protocol: (§1) In order to measure the antigen-specific binding activity of the antibody, the binding of the antibody to the human BDCA-2 variant/CHO cells prepared in Example 1 was evaluated. Specifically, the human BDCA-2 variant/CHO cells were first suspended in an RPMI1640 culture medium (Life Technologies, Inc.) at 2×10⁵ cells/mL, seeded at 50 μL per well in a poly-D-lysine-coated 384-well plate (Greiner Bio-One), and cultured overnight in a CO₂ incubator set at 37° C. Then, the culture medium was removed, and 20 μL of each of a hybridoma-derived antibody (the antibody purified in Example 2) and a comparative antibody which had been diluted stepwise from a concentration of 10000 ng/mL to 4.6 ng/mL (8 steps in a 3-fold dilution series) with a diluent solution (a Hank's Balanced Salt solution supplemented with 1% bovine serum albumin) was added thereto and reacted at room temperature for 1 hour. Next, the assay plate was washed with a washing solution (a Hank's Balanced Salt solution supplemented with 0.1% bovine serum albumin) and 20 μL of an HRP-labeled rabbit anti-mouse IgG antibody ([…]: Dako Ltd.) which had been diluted 5000-fold with a diluent solution was added thereto, and reacted at room temperature for 30 minutes. Thereafter, the assay plate was washed with a washing solution, 30 μL of BM-Chemiluminescence ELISA Substrate (POD) (Roche Diagnostics. Inc.) which is a chemiluminescence detection reagent was added thereto, and the amount of chemiluminescence thereof was measured by an EnVision counter (PerkinElmer, Inc.). For the measurement results, the EC50 values were determined by fitting a four-parameter logistic curve. In this test, as a comparative antibody, AC144 (Non-Patent Documents 1 to 4, Miltenyi Biotec) which is a mouse antibody against human BDCA-2 was used.

human BDCA-2 variant [3] = biological target: T2, human BDCA-2 variant; test: cell ELISA on human BDCA-2 variant/CHO cells, average of three independent tests
Protocol: as §1
According to the method of Example 3, for a fully human antibody, the binding activity of the antibody against an extracellular region of human BDCA-2 was evaluated. […]

human BDCA-2 [4] = biological target: T1, human BDCA-2; test: cell-based or functional assay; remark: listed apart in the source
human BDCA-2 [5] = biological target: T1, human BDCA-2; test: cell-based or functional assay; remark: listed apart in the source

Row | Molecule | EC50 (human BDCA-2 variant [2]) | EC50 (human BDCA-2 variant [3]) | IC50 of inhibition of IFNα production from human PBMC (pDCs), first time (human BDCA-2 [4]) | IC50 of inhibition of IFNα production from human PBMC (pDCs), second time (human BDCA-2 [4]) | IC90 of inhibition of IFNα production from human PBMC (pDCs), first time (human BDCA-2 [4]) | IC90 of inhibition of IFNα production from human PBMC (pDCs), second time (human BDCA-2 [4]) | IC50 of inhibition of IFNα production from ODN2216-stimulated human PBMC (pDCs) (human BDCA-2 [5]) | IC90 of inhibition of IFNα production from ODN2216-stimulated human PBMC (pDCs) (human BDCA-2 [5]) | also measured
1 | AC144 (antibody) | 0.133 mg/L |  |  |  |  |  |  |  | IC50 of inhibition of IFNα production from ODN2216-stimulated human PBMC (pDCs) (human BDCA-2 [1]): 2.57 ng/mL; IC50 of inhibition of IFNα production from human PBMC (pDCs), first time (human BDCA-2 [1]): 2.12 ng/mL; IC50 of inhibition of IFNα production from human PBMC (pDCs), second time (human BDCA-2 [1]): 3.83 ng/mL; IC90 of inhibition of IFNα production from ODN2216-stimulated human PBMC (pDCs) (human BDCA-2 [1]): 56.5 ng/mL; IC90 of inhibition of IFNα production from human PBMC (pDCs), first time (human BDCA-2 [1]): 20.6 ng/mL; IC90 of inhibition of IFNα production from human PBMC (pDCs), second time (human BDCA-2 [1]): 26.8 ng/mL
2 | B1 |  | 0.203 mg/L | 0.32 ng/mL | 0.59 ng/mL | 2.03 ng/mL | 1.25 ng/mL |  |  | 
3 | B2 | 0.096 mg/L |  |  |  |  |  | 0.43 ng/mL | 1.03 ng/mL | 
4 | B3 |  | 0.088 mg/L | 0.54 ng/mL | 0.24 ng/mL | 1.19 ng/mL | 1.98 ng/mL |  |  | 
5 | B4 | 0.057 mg/L |  |  |  |  |  | 0.23 ng/mL | 0.93 ng/mL | 
6 | B5 | 0.059 mg/L |  |  |  |  |  | 0.27 ng/mL | 1.03 ng/mL | 
7 | B6 |  | 0.08 mg/L | 0.35 ng/mL | 0.68 ng/mL | 1.94 ng/mL | 1.76 ng/mL |  |  | 
